This note sets out measurements from US20150045540A1 (published 2015).

The target in assay [1] is Hepatocyte Growth Factor (HGF), human (human, UniProt P14210 32-728). Kind of assay: ELISA.
The target of assay [2] is T1, Placenta Growth Factor (PlGF), human (human, UniProt P49763 21-149).
T1 chain: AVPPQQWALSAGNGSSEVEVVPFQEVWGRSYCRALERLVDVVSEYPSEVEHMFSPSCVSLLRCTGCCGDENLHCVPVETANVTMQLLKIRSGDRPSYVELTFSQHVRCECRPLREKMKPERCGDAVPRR
Kind of assay: ELISA.

Usually EC50 stands for the concentration giving half of the maximal effect. High values mean a need for much substance, low ones an effect from little substance.

Hepatocyte Growth Factor (HGF), human, sequence (P14210 32-728): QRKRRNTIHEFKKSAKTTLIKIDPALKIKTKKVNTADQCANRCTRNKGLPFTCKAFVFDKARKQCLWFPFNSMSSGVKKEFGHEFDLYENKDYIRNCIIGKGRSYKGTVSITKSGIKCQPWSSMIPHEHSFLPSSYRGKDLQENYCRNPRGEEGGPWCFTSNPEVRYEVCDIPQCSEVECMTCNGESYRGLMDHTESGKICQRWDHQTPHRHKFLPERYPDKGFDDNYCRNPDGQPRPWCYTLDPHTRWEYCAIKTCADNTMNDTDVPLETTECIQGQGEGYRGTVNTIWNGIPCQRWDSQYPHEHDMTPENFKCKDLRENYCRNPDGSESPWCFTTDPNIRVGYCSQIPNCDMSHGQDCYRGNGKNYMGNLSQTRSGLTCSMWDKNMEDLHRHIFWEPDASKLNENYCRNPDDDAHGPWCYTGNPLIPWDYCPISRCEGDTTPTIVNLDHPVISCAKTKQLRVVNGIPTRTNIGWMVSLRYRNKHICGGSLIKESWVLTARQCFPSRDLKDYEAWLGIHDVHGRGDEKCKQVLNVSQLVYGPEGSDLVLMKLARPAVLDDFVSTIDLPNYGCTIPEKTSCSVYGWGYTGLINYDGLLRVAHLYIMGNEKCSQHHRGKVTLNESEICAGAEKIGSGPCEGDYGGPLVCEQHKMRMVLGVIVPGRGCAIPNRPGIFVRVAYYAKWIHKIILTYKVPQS

B1: HC 2/SLC 8 (antibody)
chain 1: GQGTLVTVSSASQPVLHQPPAMSSALGTTIRLTCTLRNDHDIGVYSVYWYQQRPGHPPRFLLRYFSQSDKSQGPQVPPRFSGSKDVARNRGYLSISELQPEDEAMYYCAMGARSRCWPRGFQSKHNSVTHVFGSGTQLTVLSQPKATPSVTLFPPSSEELQANKATLVCLMNDFYPGILTVTWKADGTPITQGVEMTTPSKQSNNKYAASSYLSLTPEQWRSRRSYSCQVMHEGSTVEKTVAPAECS
chain 2: MSWAPVLLMLFVYCTGCGPQPVLHQPPAMSSALGTTIRLTCTLRNDHDIGVYSVYWYQQRPGHPPRFLLRYFSQSDKSQGPQVPPRFSGSKDVARNRGYLSISVTHVFGSGTQLTVLSQPKATPSQVQLVQ
Regarding B1, the EC50 was 46 pM in assay [1] and 119 pM in assay [2].

B2: HC 6/SLC 8 (antibody)
chain 1: GQGTLVTVSSASTKGPQPVLHQPPAMSSALGTTIRLTCTLRNDHDIGVYSVYWYQQRPGHPPRFLLRYFSQSDKSQGPQVPPRFSGSKDVARNRGYLSISELQPEDEAMYYCAMGARSRCWPRGFQSKHNSVTHVFGSGTQLTVLSQPKATPSVTLFPPSSEELQANKATLVCLMNDFYPGILTVTWKADGTPITQGVEMTTPSKQSNNKYAASSYLSLTPEQWRSRRSYSCQVMHEGSTVEKTVAPAECS
chain 2: MSWAPVLLMLFVYCTGCGPQPVLHQPPAMSSALGTTIRLTCTLRNDHDIGVYSVYWYQQRPGHPPRFLLRYFSQSDKSQGPQVPPRFSGSKDVARNRGYLSISVTHVFGSGTQLTVLSQPKATPSQVQLVQ
As to B2, the concentration giving a half-maximal response (EC50) in assay [1] came to 59 pM; in assay [2], 73 pM.

B3: HC 7/SLC 5 (antibody)
chain 1: GQGTLVTVSSASTKGPSQPVLHQPPAMSSALGTTIRLTCTLRNDHDIGVYSVYWYQQRPGHPPRFLLRYFSQSDKSQGPQVPPRFSGSKDVARNRGYLSISELQPEDEAMYYCAMGARSRCWPRGFQSKHNSVTHVFGSGTQLTVLSQPKATPSVTLFPPSSEELQANKATLVCLMNDFYPGILTVTWKADGTPITQGVEMTTPSKQSNNKYAASSYLSLTPEQWRSRRSYSCQVMHEGSTVEKTVAPAECS
chain 2: MSWAPVLLMLFVYCTGCGPQPVLHQPPAMSSALGTTIRLTCTLRNDHDIGVYSVYWYQQRPGHPPRFLLRYFSQSDKSQGPQVPPRFSGSKDVARNRGYLSISVTHVFGSGTQLTVLSQPKAQVQLVQ
B3: the EC50 in assay [1] was 56 pM; in assay [2], 283 pM.

B4: HC 3/SLC 7 (antibody)
chain 1: GQGTLVTVSSASTQPVLHQPPAMSSALGTTIRLTCTLRNDHDIGVYSVYWYQQRPGHPPRFLLRYFSQSDKSQGPQVPPRFSGSKDVARNRGYLSISELQPEDEAMYYCAMGARSRCWPRGFQSKHNSVTHVFGSGTQLTVLSQPKATPSVTLFPPSSEELQANKATLVCLMNDFYPGILTVTWKADGTPITQGVEMTTPSKQSNNKYAASSYLSLTPEQWRSRRSYSCQVMHEGSTVEKTVAPAECS
chain 2: MSWAPVLLMLFVYCTGCGPQPVLHQPPAMSSALGTTIRLTCTLRNDHDIGVYSVYWYQQRPGHPPRFLLRYFSQSDKSQGPQVPPRFSGSKDVARNRGYLSISVTHVFGSGTQLTVLSQPKATPQVQLVQ
For the molecule B4, the EC50 in assay [1] is 54 pM; in assay [2], 159 pM.

B5: HC 5/SLC 15 (antibody)
chain 1: GQGTLVTVSSASTKGQPVLHQPPAMSSALGTTIRLTCTLRNDHDIGVYSVYWYQQRPGHPPRFLLRYFSQSDKSQGPQVPPRFSGSKDVARNRGYLSISELQPEDEAMYYCAMGARSRCWPRGFQSKHNSVTHVFGSGTQLTVLSQPKATPSVTLFPPSSEELQANKATLVCLMNDFYPGILTVTWKADGTPITQGVEMTTPSKQSNNKYAASSYLSLTPEQWRSRRSYSCQVMHEGSTVEKTVAPAECS
chain 2: MSWAPVLLMLFVYCTGCGPQPVLHQPPAMSSALGTTIRLTCTLRNDHDIGVYSVYWYQQRPGHPPRFLLRYFSQSDKSQGPQVPPRFSGSKDVARNRGYLSISVTHVFGSGTQLTVLSQPKATPSVTGGGGSQVQLVQ
As for B5, the EC50 in assay [1] is approximately 41 pM; in assay [2] it was 49 pM.
